This note sets out measurements from article PMC12519218 (2025).

B1: ATRAP-HA [not stated] / GST-AP4μ^160–453 [not stated] (parent complex)
chain 1: MELPAVNLKVILLGHWLLTTWGCIVFSGSYAWANFTILALGVWAVAQRDSIDAISMFLGGLLATIFLDIVHISIFYPRVSLTDTGRFGVGMAILSLLLKPLSCCFVYHMYRERGGELLVHTGFLGSSQDRSAYQTIDSAEAPADPFAVPEGRSQDARGY
chain 2: QQSKVAPSSAASRPVLSSRSDQSQKNEVFLDVVERLSVLIASNGSLLKVDVQGEIRLKSFLPSGSEMRIGLTEEFCVGKSELRGYGPGIRVDEVSFHSSVNLDEFESHRILRLQPPQGELTVMRYQLSDDLPSPLPFRLFPSVQWDRGSGRLQVYLKLRCDLLSKSQALNVRLHLPLPRGVVSLSQELSSPEQKAELAEGALRWDLPRVQGGSQLSGLFQMDVPGPPGPPSHGLSTSASPLGLGPASLSFELPRHTCSGLQVRFLRLAFRPCGNANPHKWVRHLSHSDAYVIRI

Variants of B1 are the subject of the experiment. Nature of the experiment: GST pull-down, immunoblot quantification; bound protein normalized to the 2% loading; sum of both groups normalized to 1 in each replicate; n = 4, mean ± SD; parent: 0.71; read off a plot. For orientation: In western blotting, separated proteins are transferred to a membrane and probed.
For chain 1 MELPAVNLKVILLGHWLLTTWGCIVFSGSYAWANFTILALGVWAVAQRDSIDAISMFLGGLLATIFLDIVHISIFYPRVSLTDTGRFGVGMAILSLLLKPLSCCFVYHMYRERGGELLVHTGFLGSSQDRSAAQTIDSAEAPADPFAVPEGRSQDARGY [chain 1 Y133A], the response is approximately 0.29.
